The target in the experiment is T1, Rad50 recombinant protein (Sulfolobus acidocaldarius) (S. acidocaldarius, UniProt O33600 1-886).
T1 construct: Rad50, Sulfolobus acidocaldarius, purified recombinant protein; source: recombinant, purified (Ni-NTA, gel filtration through Sephadex 200)
T1 sequence (looked up): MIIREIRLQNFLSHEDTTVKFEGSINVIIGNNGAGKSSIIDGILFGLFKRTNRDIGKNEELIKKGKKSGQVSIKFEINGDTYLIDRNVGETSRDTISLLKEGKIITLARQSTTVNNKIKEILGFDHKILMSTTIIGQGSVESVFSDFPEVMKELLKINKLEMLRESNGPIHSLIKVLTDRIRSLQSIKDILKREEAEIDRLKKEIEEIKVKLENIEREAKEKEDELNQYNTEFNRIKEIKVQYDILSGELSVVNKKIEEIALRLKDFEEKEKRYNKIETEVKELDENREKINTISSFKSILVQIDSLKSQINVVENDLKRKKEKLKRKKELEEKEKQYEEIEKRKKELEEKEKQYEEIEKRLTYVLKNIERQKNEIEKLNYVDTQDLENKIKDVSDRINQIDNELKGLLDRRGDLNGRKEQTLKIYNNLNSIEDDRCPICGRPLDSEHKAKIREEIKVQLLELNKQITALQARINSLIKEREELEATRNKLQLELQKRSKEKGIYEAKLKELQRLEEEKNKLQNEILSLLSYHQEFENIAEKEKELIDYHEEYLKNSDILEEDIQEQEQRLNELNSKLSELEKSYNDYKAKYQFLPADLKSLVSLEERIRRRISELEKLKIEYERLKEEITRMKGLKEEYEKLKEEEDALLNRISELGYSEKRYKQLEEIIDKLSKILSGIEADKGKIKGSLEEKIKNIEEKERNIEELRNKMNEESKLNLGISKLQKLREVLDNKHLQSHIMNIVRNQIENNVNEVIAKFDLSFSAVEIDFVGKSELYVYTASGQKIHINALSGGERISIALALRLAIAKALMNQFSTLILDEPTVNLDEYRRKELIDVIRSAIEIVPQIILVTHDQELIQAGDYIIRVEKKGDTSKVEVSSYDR
Description: co-IP; anti-Rad50 purified IgGs and protein A-sepharose on a mixture of purified recombinant proteins (60 nM Rad50, Mre11 and NurA, 300 nM HerA) in IP buffer (20 mM Hepes pH 7.5, 100 mM NaCl, 15 mM MgCl2, 5 mM beta-mercaptoethanol); 4°C; immunoblot. Conditions: both partners purified. Background: A western blot detects proteins with antibodies after separation by electrophoresis.

B1: HerA recombinant protein (Sulfolobus acidocaldarius) (natural protein, S. acidocaldarius, UniProt F2Z5Z6 1-495, looked up)
chain: MTIGYIIGSATINEATAILEQKIRAGYYVILEYDGDKILGLITNVYTGSPLLDDNLNDVKFVQRIKQLEANKIPFFIKARIKLLCKLDGKFTQPDLPPVAGTPVRLASDEELSTVFSAGDVRIGKLIGSNVEVKIRLNPLSRHLAILAATGSGKSNTVAILSQRLVEIGGSILIFDYHGEYYDSTLPNLNIIEPKLNPLYLSVNEFATLLEIRENANIQYRIIRRTFNQLKEEINNEIKEGKTSLAELNSNFFERLKVKIEEEGRNEKRKESKDEVLNKVEDFAERYSDIIDITFGDVINKIKLGKINVVNLSSLDEDAIDAIVAHYLRRILTSRKENKIKKDSGLKFPILTVVEEAHVLLSKDTNTLTKKWAGRIAREGRKFGVGLIIVSQRPKGLDENILSQMTNKIILKIVEPSDKKYVLETSDNLSEDLADGLSSLDTGEAIIIGNVVKLPTIIKIDKFEGKLSGSDPNLTEEWKRAKEEEIVHSDVSDWG
notes: HerA bipolar DNA helicase, Sulfolobus acidocaldarius, purified recombinant protein; also called HerA bipolar helicase
B1: the binding result was “binds”.

B2: Mre11 recombinant protein (Sulfolobus acidocaldarius) (natural protein, S. acidocaldarius, UniProt Q8NKQ0 1-382, looked up)
chain: MQLLHISDTHLGKRQYNLESREKDVYDTFTQLIDIAINEHVKAVIHTGDLFDVNNPPNRAKLHAIKELKRLKDHNIPFICIAGDHDSPKRKEEIYPQRILEEFNLIKILQKIDNRVKLENVEVYGISHISNVSVNDLKEQLSKVKPETRKSILMLHQGIRTYLPYQGAWQIELSDLPKGFSLYAVGHLHSRRKDYLDGGALIEIAGSPDIMREEEIEDYQKSKKGATLIDMSGDLPSINYINVNIRDQLVLDINVDKIEQSIESVIQKLKENVKNDKKPILHIELEGTVPIRKDVLMTKLQALRDYVEHYRIYKNNIVSIKEENLKTKLKTTYSSLNDIIADYLKGIGYTDEETKIIIDIINEEDEKKVEELLKKFAGVEDK
notes: Mre11, Sulfolobus acidocaldarius, purified recombinant protein; source: recombinant, purified (Ni-NTA, gel filtration through Sephadex 200)
For the molecule B2, the binding result was “binds”.

The values are drawn from PMC2288612, “The Mre11 protein interacts with both Rad50 and the HerA bipolar helicase and is recruited to DNA following gamma irradiation in the archaeon Sulfolobus acidocaldarius” (BMC Molecular Biology, 2008).
